The numbers were not newly measured in PMC7955094, which cites them from elsewhere.

One data set addresses His37 (UniProt position 37, IIGILHLILWI). The following applies: AM2 tetramer.
The target of another data set is His19 (UniProt position 19, ILSALHFMAWT). The settings on record: membrane-bound H27A BM2 tetramer.

Consider “Influenza A virus M2 protein (AM2) proton channel (Influenza A virus (strain not stated))”, for which the pKa with His37 is 5.9.
With “Influenza B virus M2 protein (BM2) H27A mutant (Influenza B virus (strain of the quoted study not stated); H27A)”, in the data set with His19, the pKa is listed as 5.6.
